Measurements published in publication PMC11336944, “CWF19L2 is Essential for Male Fertility and Spermatogenesis by Regulating Alternative Splicing” (Advanced Science, 2024).

Molecular target: T1, PRPF8 (mouse (endogenous in testis), UniProt Q99PV0 1-2335)
T1 construct: PRPF8 (pre-mRNA-processing-splicing factor 8), mouse, endogenous in testis and sorted germ cells; also called spliceosome skeleton marker PRPF8; source: endogenous, PD10 WT mouse testis extract; endogenous, lysate of sorted germ cells from Cwf19l2‐SKO and control mice
Assay: co-IP; PRPF8 antibody immunoprecipitation from sorted germ cells of Cwf19l2-SKO mice (CWF19L2 deleted in germ cells), immunoblotting, bands quantified against control mice; IgG as negative control
Settings: partners not purified

fold PRPF43 in the PRPF8 co-IP, control over Cwf19l2-SKO, normalised to PRPF8: 1.5 times
B1: PRPF43 (natural protein, mouse (endogenous in testis), UniProt O35286 1-795, looked up)
chain: MSKRHRLDLGEDYPSGKKRAGTDGKDRERDRDREDRSKDRDRERDRGDREREREKEKEKELRASTNAMLISAGLPPLKASHSAHSTHSAHSTHSTHSAHSTHTGHTGHTSLPQCINPFTNLPHTPRYYDILKKRLQLPVWEYKDRFTDILVRHQSFVLVGETGSGKTTQIPQWCVEYMRSLPGPKRGVACTQPRRVAAMSVAQRVADEMDVMLGQEVGYSIRFEDCSSAKTILKYMTDGMLLREAMNDPLLERYGVIILDEAHERTLATDILMGVLKEVVRQRSDLKVIVMSATLDAGKFQIYFDNCPLLTIPGRTHPVEIFYTPEPERDYLEAAIRTVIQIHMCEEEEGDLLLFLTGQEEIDEACKRIKREVDDLGPEVGDIKIIPLYSTLPPQQQQRIFEPPPPKKQNGAIGRKVVVSTNIAETSLTIDGVVFVIDPGFAKQKVYNPRIRVESLLVTAISKASAQQRAGRAGRTRPGKCFRLYTEKAYKTEMQDNTYPEILRSNLGSVVLQLKKLGIDDLVHFDFMDPPAPETLMRALELLNYLAALNDDGDLTELGSMMAEFPLDPQLAKMVIASCDYNCSNEVLSITAMLSVPQCFVRPTEAKKAADEAKMRFAHIDGDHLTLLNVYHAFKQNHESVQWCYDNFINYRSLMSADNVRQQLSRIMDRFNLPRRSTDFTSRDYYINIRKALVTGYFMQVAHLERTGHYLTVKDNQVVQLHPSTVLDHKPEWVLYNEFVLTTKNYIRTCTDIKPEWLVKIAPQYYDMSNFPQCEAKRQLDRIIAKLQSKEYSQY
notes: PRPF43 / PRP43 as printed, mouse, endogenous in testis and sorted germ cells; also called PRP43; ILS complex marker PRPF43; source: endogenous, PD10 WT mouse testis extract; endogenous, lysate of sorted germ cells from Cwf19l2‐SKO and control mice
